Earlier results on 1 substance are cited in PMC5671728.

Where “and” joins values, the source holds several entries; their conditions need not be identical. Equal entries are not always repeated.

Data set [1] addresses Insulin receptor isoform A (Homo sapiens) (UniProt P06213).
Data set [2] deals with Insulin receptor isoform B (Homo sapiens) (UniProt P06213).

Insulin, sequence (P01308 90-110): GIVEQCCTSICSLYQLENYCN

Take Insulin (from UniProt P01308): the Kd in data set [1] is 0.91 nM and 2.1 nM; in data set [2], 1.8 nM and 1.56 nM.
